Tests used:
[1] = molecular target: StayGold (CU17S/V168A) (Cytaeis uchidae); assay: AUC; sedimentation equilibrium; purified recombinant StayGold at 2.8 uM in 50 mM HEPES-NaOH (pH 7.4), 24 C, absorbance at 497 nm
[2] = molecular target: StayGold (CU17S/V168A) (Cytaeis uchidae); assay: pseudonative SDS-PAGE; non-heated protein samples separated on 10% polyacrylamide gels

stoichiometry N [1]: 2
stoichiometry N [2]: 2
Substance: StayGold (CU17S/V168A) (natural protein)
